# Data published in paper PMC7382501.
# Biological target: FasR full-length (crystallisation) (Mycobacterium tuberculosis H37Rv, UniProt O05858 1-228)
# Experiment: X-ray crystallography
# Details: protein: recombinant; tags: N-terminal His6-TEV, likely cleaved with TEV; chain copies: 2; blunt
binder,measurement,value
Pfas25nt (FwPfas25nt/RvPfas25nt) (dsDNA) DNA 1: TACCCGTACGTAGAACTCGCCAGTA DNA 2: TACTGGCGAGTTCTACGTACGGGTA,binding result,binds
